Target: the molecule itself
Assay: SEC-MALS

B1: recombinant BCAS0292 (natural protein)
chain: MSGVRCDGLAIVDAVTLLSAYPDASRDADAPTVIDGRHIYVLRPGDAGQVGHNDNRLFAGLSPGDQLHLRETALALRAEVTVLFIRFALKDAGIVAPIEAEIRDAATPVPDGDDLLHPSCRPMKDHFWRSEVLAPGITTCTADFAVLDRDGAVSGYFRWETAIEIAGSRPDTKQPGVEP
stoichiometry N: 2

Reference: publication doi:10.1101/2020.08.06.226779 (bioRxiv, 2020)
